# Data published in patent US10877024B2, “Methods of determining interferon having direct inhibitory effects on tumors and uses thereof” (SUPERLAB FAR EAST LIMITED, priority 2015, dated 2020).
# Columns and labels:
# [1] = tested on: Axin2; assay: qPCR of Wnt signaling downstream gene in A549 cells; format: cell-based, human; settings: 10 μg/ml, 24 hr
# Protocol: (§1) After 24 hr of treatment, cellular total mRNA was isolated using TRIZOL Reagent and cDNA was synthesized and further subjected to qPCR, using specific primers of four (4) Wnt signaling downstream genes, Axin2, CD24, Survivin and ID2. Experiments were conducted in triplicate and normalized with the Mock group.
# (§2) Total mRNA was isolated using TRIZOL Reagent (Invitrogen, Carlsbad, Calif.) according to the manufacturer's instructions. Complementary DNA (cDNA) was synthesized using a RT-PCR Kit (Cat #:FSQ-101, TOYOBO, Japan) according to the manufacturer's instructions and then subjected to qPCR with a SYBR Green PCR kit (Cat #: QPK-201, TOYOBO, Japan). The primers of the four Wnt pathway target genes were as follows: Axin2 sense primer: 5′-[…]-3′ (SEQ ID NO:8) and antisense primer: 5′-[…]-3′(SEQ ID NO: 9); CD24 sense primer: 5′-[…]-3′ (SEQ ID NO: 10) and antisense primer: 5′-[…]-3′(SEQ ID NO: 11); Survivin sense primer: 5′-[…]-3′ (SEQ ID NO: 12) and antisense primer: 5′-[…]-3′ (SEQ ID NO: 13) and ID2 sense primer: 5′-[…]-3′ (SEQ ID NO: 14) and antisense primer: 5′-[…]-3′(SEQ ID NO: 15).
# (§3) The amplification protocol consisted of incubations at 95° C. for 1 minute, 40 cycles (95° C. for 15 seconds, 60° C. for 15 seconds, 72° C. for 30 seconds). Incorporation of the SYBR Green dye into PCR products was monitored in real time with a Bio-Rad Detection System and subsequently analyzed using Bio-Rad CFX manager 2.1 software. The samples were pooled for each condition and run in duplicate. Treated samples were compared to Mock using the 2^−ΔΔCt method and plotted as fold change. GAPDH was used as the normalization control.
# [2] = tested on: Survivin; assay: as above; format: cell-based, human; settings: 10 μg/ml, 24 hr
# Protocol: as §1, §2, §3
# [3] = tested on: ID2; assay: as above; format: cell-based, human; settings: 10 μg/ml, 24 hr
# Protocol: as §1, §2, §3
# [4] = tested on: CD24; assay: as above; format: cell-based, human; settings: 10 μg/ml, 24 hr
# Protocol: as §1, §2, §3
# [5] = tested on: beta-catenin/TCF mediated transcriptional activity; assay: Beta-catenin/TCF transcription reporter assay (TOPFlash); format: cell-based, human; settings: 10 mcg/ml, 24 hours
# Protocol: The effect of rSIFN-co on Wnt/Beta-catenin signaling in vitro was determined. Cancer cells were plated in 96-well plates (at 1×10^4 cells per well), and incubated for 12 hours, after which they were transiently transfected with 100 ng TOPFlash (Millipore Corporation, Billerica, Mass., USA). […] After interferon treatment for 24 hours, luciferase assay was performed using the Dual Luciferase Assay System kit according to the manufacturer's protocols (Cat #:E1960, Promega). Relative luciferase activity was reported as a ratio of firefly/renilla luciferase activity. Experiments were performed in triplicate.
# [6] = tested on: human hepatoma SMMC-7721 xenografts; assay: rSIFN-co on human hepatoma SMMC-7721 xenografts in nude mice; settings: for TV(mm^3, mean ± SD) (D 0): day 0; for % Inhibition / T/C (%) / TV(mm^3, mean ± SD) (D 21): day 21
# Protocol: The test article was used without dilution. It was stored at 4° C. until thawed for injection.
# The animals used were 4-6 weeks old male BALB/cA nu/nu mice, weighing about 23±2 g, obtained from the Shanghai Institute of Materia Medica (Shanghai, P.R. China). […] Animals were housed 6 to a cage. They were ear-marked with ear hole punch identification. The room temperature was maintained at 25° C.±+1° C. Lighting was set at 12 hr on and 12 hr off. Food was provided ad libitum. City tap water, filtered with a 5 micrometer (μm) filter, was provided to the animals ad libitum via water bottles.
# The test article was administered in a volume of 0.05 ml-0.15 ml per mouse per treatment, depending on the group to which the animal was assigned. […] Normal saline was injected in a volume of 0.15 ml per mouse, which was used as vehicle control.
# Animals were assigned to treatment groups randomly. Initially, all animals were placed in one large animal cage. For assignment to the study, they were later separately housed, with 6 animals per cage per treatment group. Groups 1 and 2 are Control groups in which the animals were each administered the vehicle every other day after the first treatment. […] Tumor growth was monitored by measuring the length and width of each tumor twice a week during the course of the study. Each animal was also weighed twice a week during the course of the study.
# Before commencement of this study, the xenografts were passaged twice in nude mice. Under sterile conditions, well-grown tumors were cut into 1.5 mm^3 fragments and one such fragment was injected by trocar needle into the right flank of each study animal. […] Individual tumor size (length and width) was measured twice per week with microcalipers. Tumor volume (V) was calculated using the formula: V=(length×width^2)/2. Individual relative tumor volume (RTV) was calculated using the formula: RTV=Vt/V0, where Vt is the tumor volume on the day of measurement and V0 is the tumor volume on the day of first treatment. Therapeutic effect of the test article or control article was expressed in terms of T/C (%), using the formula: T/C (%)=(mean RTV of the treated group/mean RTV of the control group)×100%; and in terms of % Inhibition, using the formula: % Inhibition=100%−T/C %.
# [7] = tested on: Lung cancer cells, A549; assay: Colony and pseudopod formation in three dimensional Matrigel culture; format: cell-based, human; settings: 10 mcg/ml
# Protocol: Matrigel (from BD Corporation, Cat #: 356234) was thawed on ice in a 4° C. refrigerator overnight, and a 24-well plate was frozen at −20° C. overnight. Thereafter, each well of the frozen 24-well plate was coated with 150 μl of the Matrigel at 1.0 mg/ml. The Matrigel coated plate was then incubated 37° C. for 20-30 min. Lung cancer cells, A549, were trypsinized and counted. […] The cells were incubated at 37° C. for at least about 8 days. About 200 μl of the above conditioned medium was added every 3 days to prevent the medium from drying. On the 4th or 8th day, photographs were taken to observe the size of the colonies and invasive feet (pseudopod) formation. The experiment was conducted in triplicate.
# [8] = tested on: A549 xenograft tumors; assay: Tumor growth of A549 xenografts in nude mice; format: in vivo, BALB/c nude mice; settings: 100 μg/100 μl per mouse intratumorally, every other day, 12 times; vs PBS
# Protocol: This experiment was conducted in accordance to the National Institutes of Health Guide for the Care and Use of Laboratory Animals. Female BALB/c nude mice, 4-5 weeks old, were obtained from Shanghai Experimental Animal Center (Shanghai, China). About 5×10^6 A549 cells were subcutaneously injected into each mouse to establish xenograft tumors. […] The tumors were measured every three (3) days and the tumor volumes were calculated as follows: tumor volume (mm^3)=(length×width^2)/2. Data are shown as Mean±SD (n=8).
# [9] = tested on: SW620 tumor cells; assay: Cell viability, MTT assay, 1-6 days; format: cell-based, human; settings: 10 μg/ml
# Protocol: The cell survival rate was evaluated in a standard MTT assay [3-(4,5-dimethylthiazol-2-yl)-2,5-diphenyltetrazolium bromide assay, Sigma, St. Louis, Mo.). For the assay, about 20 μl MTT (at 4 mg/ml) was added to each well. The cells were incubated at 37° C. for 4 hr. After that, the supernatant of each well was drawn off carefully and then an equal volume (150 microliter) of dimethyl sulfoxide (DMSO) was added to each well and mixed thoroughly on a shaker for 15 min. The absorbance from the plates was read at 595 nm with a Thermo Scientific Microplate Reader (Thermo Fisher Scientific Inc., Lowell, Mass.). The relative cell viability was calculated as follows: Cell viability=(Treated group(OD595) minus blank(OD595))/(Control group(OD595) minus blank(OD595))×100%.
# [10] = 0.05 mg/mouse i.t. every other day
# [11] = 0.10 mg/mouse i.t. every other day
# [12] = 0.15 mg/mouse i.t. every other day
molecule,measurement,setting,value
"rSIFN-co: Recombinant super-compound interferon; amino acid sequence SEQ ID NO: 1 (same as INFERGEN), encoded by novel nucleotide sequence SEQ ID NO: 2 (protein, Amino acid sequence of recombinant interferon) MCDLPQTHSLGNRRALILLAQMRRISPFSCLKDRHDFGFPQEEFDGNQFQKAQAISVLHEMIQQTFNLFSTKDSSAAWDESLLEKFYTELYQQLNDLEACVIQEVGVEETPLMNVDSILAVKKYFQRITLYLTEKKYSPCAWEVVRAEIMRSFSLSTNLQERLRRKE",relative expression level of Axin2 mRNA (Mock control set at 1),[1],about 0.4
same,relative expression level of Survivin mRNA (Mock control set at 1),[2],about 0.4
same,relative expression level of ID2 mRNA (Mock control set at 1),[3],about 0.4
same,relative expression level of CD24 mRNA (Mock control set at 1),[4],about 0.4
same,Firefly/Renilla ratio,"[5]; A549 cells, Control about 310",about 100
same,Firefly/Renilla ratio,"[5]; H460 cells, Control about 450",about 280
same,Firefly/Renilla ratio,"[5]; H1299 cells, Control about 800",about 500
same,Firefly/Renilla ratio,"[5]; HT-29 cells, Control about 300",about 200
same,Firefly/Renilla ratio,"[5]; SW620 cells, Control about 1500",less than 100
same,"TV(mm^3, mean ± SD) (D 0)",[6]; [10],124 ± 26 mm^3
same,% Inhibition,[6]; [10],48.01%
same,T/C (%),[6]; [10],51.99%
same,"TV(mm^3, mean ± SD) (D 21)",[6]; [10],592 ± 139 mm^3
same,"TV(mm^3, mean ± SD) (D 0)",[6]; [11],124 ± 15 mm^3
same,% Inhibition,[6]; [11],52.20%
same,T/C (%),[6]; [11],47.80%
same,"TV(mm^3, mean ± SD) (D 21)",[6]; [11],573 ± 287 mm^3
same,"TV(mm^3, mean ± SD) (D 0)",[6]; [12],123 ± 20 mm^3
same,% Inhibition,[6]; [12],56.80%
same,T/C (%),[6]; [12],43.20%
same,"TV(mm^3, mean ± SD) (D 21)",[6]; [12],505 ± 226 mm^3
same,size of the colonies,[7]; after 4 days,smaller colonies than the untreated group
same,invasive feet (pseudopod) formation,[7]; after 8 days,almost no extrusive pseudopodium around the cells
same,size of the colonies,[7]; after 8 days,smallest colonies of the 3 groups
same,inhibition of tumor growth (tumor volume),[8],almost completely inhibit growth of established tumors
same,cell viability over time (MTT),[9],strongly decreased cell viability of SW620 cells in a time-dependent manner
